pKd: −log10 of the molar value.
Target: SUMO1 (human) (UniProt P63165)
Assay: SPR; preliminary BiaCore analyses, done by Affina Biotechnologies as a paid service

UniProt P63165, sequence (P63165 1-97): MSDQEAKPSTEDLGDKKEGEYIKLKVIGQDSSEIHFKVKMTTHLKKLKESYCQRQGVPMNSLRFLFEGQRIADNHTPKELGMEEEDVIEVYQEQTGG

Question: “Ulp1(3)^(C580S) as used in the BiaCore analyses (from UniProt Q02724 341-621) (domain or fragment)” was tested. Which pKd did it give?
Answer: 7.89
